Patent US20240352099A1 (JULIUS MAXIMILIANS UNIVERSIT T W RZBURG, published 2024)

B1: monoclonal antibody 5E1 directed against Tef1 of Candida albicans, produced by the hybridoma cell line DSM ACC 3368 (antibody)
heavy: EVKLVESGGGLVKPGGSLKLSCAASGFTFSSYAMSWVRQTPEKRLEWVASISSGGSTYYPDSVKGRFTISRDNARNILYLQMSSLRSEDTAMYYCARGYDGYDYWGQGTTLTVSSESQSFPNVFPLVSCESPLSDKNLVAMGCLARDFLPSTISFTWNYQNNTEVIQGIRTFPTLRTGGKYLATSQVLLSPKSILEGSDEYLVCKIHYGGKNRDLHVPIPAVAEMNPNVNVFVPPRDGFSGPAPRKSKLICEATNFTPKPITVSWLKDGKLVESGFTTDPVTIENKGSTPQTYKVISTLTISEIDWLNLNVYTCRVDHRGLTFLKNVSSTCAASPSTDILTFTIPPSFADIFLSKSANLTCLVSNLATYETLNISWASQSGEPLETKIKIMESHPNGTFSAKGVASVCVEDWNNRKEFVCTVTHRDLPSPQKKFISKPNEVHKHPPAVYLLPPAREQLNLRESATVTCLVKGFSPADISVQWLQRGQLLPQEKYVTSAPMPEPGAPGFYFTHSILTVTEEEWNSGETYTCVVGHEALPHLVTERTVDKSTGKPTLYNVSLIMSDTGGTCY
light: not shown
notes: Mouse IgM, kappa from hybridoma; also called mAb 5E1; anti-Tef1 mAb 5E1
B2: monoclonal antibody 8C3 directed against Pra1 of Candida albicans, produced by the hybridoma cell line DSM ACC 3369 (antibody, mouse IgG1, kappa, V domains shown)
VH: EVQLVESGGDLVKPGGSLKLSCAASGFTFSTYGMSWVRQTPDKRLEWVATISSGGSYTYYPDSVKGRFTISRDNVKNTLYLQMSSLKSEDTAMYYCARQGLDDNYAEWYFDVWGAGTTVTVSS
VL: DILLTQSPATLSVTPGETVSLSCRASQSIYKNLHWYQQKSHRSPRLLIKYASDSISGIPSRFTGSGSGTDYTLSINSVKPEDEGKYYCLQGFSTPWTFGGGTKLEIKR
notes: Mouse IgG1, kappa from hybridoma; also called mAb 8C3; anti-Pra1 mAb 8C3

Tests used:
[1] = target: T1, Tef1 on C. albicans strain SC5314 hyphae (Candida albicans, UniProt P0CY35 2-458); test: flow cytometry on C. albicans
T1 construct: whole, on cells; The stained target is the whole fungal cell; also called C. albicans hyphae
T1 sequence (looked up): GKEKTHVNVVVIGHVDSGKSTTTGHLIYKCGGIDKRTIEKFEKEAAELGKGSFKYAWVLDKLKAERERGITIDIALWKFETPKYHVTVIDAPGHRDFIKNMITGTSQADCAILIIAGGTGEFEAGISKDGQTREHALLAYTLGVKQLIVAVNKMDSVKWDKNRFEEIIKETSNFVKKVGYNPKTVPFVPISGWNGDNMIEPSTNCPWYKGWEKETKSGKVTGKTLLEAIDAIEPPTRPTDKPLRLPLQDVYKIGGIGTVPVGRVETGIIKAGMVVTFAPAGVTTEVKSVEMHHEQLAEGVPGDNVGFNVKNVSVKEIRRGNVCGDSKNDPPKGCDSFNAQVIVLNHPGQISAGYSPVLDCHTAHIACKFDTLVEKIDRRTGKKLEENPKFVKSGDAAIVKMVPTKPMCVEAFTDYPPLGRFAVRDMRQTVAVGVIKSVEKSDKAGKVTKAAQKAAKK

[2] = target: T2, Pra1 on C. albicans strain SC5314 hyphae (Candida albicans, UniProt P87020 16-299); test: flow cytometry and confocal microscopy, summary
T2 construct: whole, on cells; The stained target is the whole fungal cell; also called C. albicans hyphae
T2 sequence (looked up): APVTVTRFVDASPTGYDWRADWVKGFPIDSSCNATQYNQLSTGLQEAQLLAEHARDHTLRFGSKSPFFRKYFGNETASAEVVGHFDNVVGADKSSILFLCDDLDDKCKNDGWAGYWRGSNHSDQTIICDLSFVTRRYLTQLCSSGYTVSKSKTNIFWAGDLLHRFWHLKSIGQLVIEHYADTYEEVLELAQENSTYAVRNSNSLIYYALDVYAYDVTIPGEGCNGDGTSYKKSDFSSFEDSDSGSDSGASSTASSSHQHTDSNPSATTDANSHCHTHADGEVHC

| Binder | binding result [1] | binding result [2] |
| --- | --- | --- |
| B1 | binds |  |
| B2 |  | binds |
